This is an account of results in the RNAGym collection of RNA variant scans (doi:10.7554/elife.80360).

The chains are these.
B1: Hairpin Ribozyme (parent)
chain: GUCCUCUUUCACGUGCGCGUGAAAGAGAGAAGUGAACCAGAGAAACACACGUUGUGGUAUAUUACCUGGUA

Variants of B1 are the subject of this series. Briefly: self-cleavage, relative activity (ratio to wild type); higher = more cleavage; co-transcriptional.
For GUCCUCUUUCACGUGCGCGUGAAAGAGAGAAGUGAACCAGAGAAACACACGUUGUGGUACAUUACCUGGGA, the self-cleavage was found to be 1.03.

Consider GUCCUCUUUCACGUGCGCGUGAAAGAGAGAAGUUAACUAGAGAAACACACGUUGUGGUAUAUUACCUGGUA, for which the self-cleavage was 1.42. The result for GUCCUCUUUCACAUGCGCGUGAAAGAGAGAAGUGAACCAGAGUAACACACGUUGUGGUAUAUUACCUGGUA reads 0.144. In the case of GUCCUCUUUCACGUGCGCGUGAAAGAGCGAAGUGAACCAGAGAAACACACGAUGUGGUAUAUUACCUGGUA it was 0.492. As to GUCCUCUUUCACGUGCGCGUGAAAGAGAGAAGUGAACCAGAGAAACACACGUUGUGUUAUAUAACCUGGUA, the self-cleavage came out at 0.146. GUCCUCUUGCACGUGCGCGUGAAAGAGAGAAGUGCACCAGAGAAACACACGUUGUGGUAUAUUACCUGGUA: the self-cleavage was 0.637. Take GUCCUCUUUUACGUGCGCGUGAAAGAGAGAAGUGAACCAGAGAAACACAAGUUGUGGUAUAUUACCUGGUA: the self-cleavage was 0.18. Regarding GUCCUCUUUCACGUGCGCGUGAUAGAGAGAAGUGAACCAGAGAAACAAACGUUGUGGUAUAUUACCUGGUA, the self-cleavage was found to be 0.157. The result for GUCCUCUUUCACGUUCGCGUGAAAGAGAGAAGUGAACCAGAGAAACACACGCUGUGGUAUAUUACCUGGUA reads 0.911; that for GUGCUCUUUCACGUGCGCGUGAAAGAGAGAAGUGAACCAGAGAAACACGCGUUGUGGUAUAUUACCUGGUA, 0.148.

Turning to GUCCUCUUUCACGUGCGCGUCAAAGAGAGAAGUGAUCCAGAGAAACACACGUUGUGGUAUAUUACCUGGUA, the self-cleavage worked out at 0.566. For the variant GUCGUAUUUCACGUGCGCGUGAAAGAGAGAAGUGAACCAGAGAAACACACGUUGUGGUAUAUUACCUGGUA, the self-cleavage worked out at 0.195. The result for GUCCUCUUUCACGUGCGCGAGAAAGAGAGAAGUGAACCAGAGAAACACACGUUGUGGUAUAUUUCCUGGUA reads 0.135. The result for GUCCUCUUUCACGUGCGCGUGAAAGAGAGAUGUGAACCAGAGAAACACACGUUGGGGUAUAUUACCUGGUA reads 0.089; that for GUCCUCUUUCACGUGCGCGUGAAAGAGAGAAGUGAACCAGAGAAACACCCGUUGUGGUAUUUUACCUGGUA, 0.104. As to GUCCUCUUUCACGUGCGCGUGAAAGAGAGUAGUGAACCAGGGAAACACACGUUGUGGUAUAUUACCUGGUA, the self-cleavage was 0.106. With GUACUCUUUCACGUGCGCGUGAAAGAGAGAAGUGAACCAGAGAAACACACGUUGUGGUAUAUUACUUGGUA, the self-cleavage was determined as 0.435. The result for GUCCUCUUUCACGUGCGCGUGAAAGAGAGAAGUGAACCAGAGAAACACACGUUGUUGUAUAUUACCUGUUA reads 0.207.

GUCCUCUUUCACGUGCGCGUGAAAGAGAGAAGUGAACGAGAGAAACACACGUUGUGGUAUAUUACUUGGUA: the self-cleavage is 0.21. Turning to GUCCUCUUUCACGUGCGCGUGAAAGAGAGAAGUGAAGCAGCGAAACACACGUUGUGGUAUAUUACCUGGUA, the self-cleavage was 0.282. Regarding GUACUCUUUCACGUGCGCGUGAAAGAGAGAAGUGAACCAGAGAAACACACGUUGUGGUAUAUGACCUGGUA, the self-cleavage worked out at 0.174.

With GUCCUCUUUCACGUGCGCGUGAAAGAGAGAAGUGAACGAGAGAAACAGACGUUGUGGUAUAUUACCUGGUA, the self-cleavage turned out to be 0.071.

In the case of GUCCUCUUUCACGUGCGCGUGAACGAGAGAAGUGAUCCAGAGAAACACACGUUGUGGUAUAUUACCUGGUA, the self-cleavage was determined as 0.556.

Consider GUCCUCUUUCACGUGCGCGUGAAAGAGAGAAGUGAACCAGAGAACCACACGGUGUGGUAUAUUACCUGGUA, for which the self-cleavage worked out at 0.0239. In the case of GUCCUCUUUCACGUGCGCGUUAAAGAGAGAAGUGAACCAGAGAAACACACGUUGUGGUAUAUUACCAGGUA it was 0.088.

With GUGCUCUUUUACGUGCGCGUGAAAGAGAGAAGUGAACCAGAGAAACACACGUUGUGGUAUAUUACCUGGUA, the self-cleavage turned out to be 0.213. Consider GUCCUCUUUCACCUGCGCGUGAAAGAGAGAAGUGAACCAGAGAGACACACGUUGUGGUAUAUUACCUGGUA, for which the self-cleavage was determined as 0.127.

For GUCCUCUUUCACGUGCGCGUGAAAGAGAGAAGUGAACCAGAUUAACACACGUUGUGGUAUAUUACCUGGUA, the self-cleavage was 0.108. Regarding GGCCUCUUUCAGGUGCGCGUGAAAGAGAGAAGUGAACCAGAGAAACACACGUUGUGGUAUAUUACCUGGUA, the self-cleavage worked out at 0.184.

GUCCUCUUUCACGUGCGCGUGAAAGAGAGAAGUGAACCAGAGAAACACAAGUUUUGGUAUAUUACCUGGUA: the self-cleavage came out at 0.97. Take GUCCUCUUUCACGUGCGCGUGAAAGAGAGAAGUGAACCAGAGAAACACACGUUGUGGUAUAUUCGCUGGUA: the self-cleavage came out at 0.161. The result for GUCCUCUUUCACGUGCGCGUGAAAGAGAGAAGUGAACCAGUGAAGCACACGUUGUGGUAUAUUACCUGGUA reads 0.218; that for GUCCUCUUUCACGUGCGCGUGAAAGAGAGAAGUGAACCAGUGAAACACACUUUGUGGUAUAUUACCUGGUA, 1.5. The result for GUCCUCUUUCACGUGCGCGUGAAAGUGAGAAGUGAACCAGAGAAAUACACGUUGUGGUAUAUUACCUGGUA reads 0.11. The result for GUCCUCUUUUAAGUGCGCGUGAAAGAGAGAAGUGAACCAGAGAAACACACGUUGUGGUAUAUUACCUGGUA reads 0.574. For GUCCUCUUUCACGUGCGCGUGAAAGAGAGAAGUUAACCAGAGAAACACACGUUGUGGUAUCUUACCUGGUA, the self-cleavage amounted to 1.2.

Regarding GUCCUCUUGCACGUGCGCGUGAAAGAGAGAAGUGAACCAGAGAAACACACGUGGUGGUAUAUUACCUGGUA, the self-cleavage was found to be 0.656. In the case of GUCCUCUUUCACGUGCGCGUGAAAGAGAGAAGCGAACCAGAGAAACACACGUUGUGGUAGAUUACCUGGUA it was 0.0999.
